Experimental data from the nanobody polyreactivity screen of Harvey et al. (2022).

Test: yeast display, Sf9 membrane polyspecificity reagent, FACS + sequencing; frameworks hold sequencing errors
Outline: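 Synthetic nanobody libraries on Saccharomyces cerevisiae BJ5465 were galactose-induced for 36–48 hours, stained 1 hour at 4 °C with 10% biotinylated, detergent-solubilized Sf9 membrane reagent and enriched on streptavidin microbeads. FACS then separated cells into low and high (top ~1%) gates by anti-HA (expression) and streptavidin (reagent binding) fluorescence. Genes were colony-PCR amplified, MiSeq 2 × 250 sequenced and CDR-length filtered. A clone's polyreactivity label is that of its gate of origin.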

Row | Sequence | polyreactivity (PSR sort gate)
1 | QVQLVESGGGLVQAGGRLRLSCAASGSTFGTNDMGWYRQAPGKEREFVASIDWSGDSTNYADSVKGRFTISRDNAKNTVYLQMNSLKPEDTADYYCAARVFPQIYYTSYDYWGQGTQVTVSS | high polyreactivity
2 | QVQLVESGGGLVQAGGSLRLSCAASGSIFSENAMGWYRQAPGKERELVADITDGGGSTYYADSVKGRFTISRDNAKNTVYLQMNSLKPEDTAVYYCNAQIFFFAPWYYEYDYWGQGTQVTVSS | low polyreactivity
3 | QVQLVESGGGLVQAGGSLRLSCAASGSIFLRNAMGWYRQAPGKERELVAAITYSSGSTYYADSVKGRFTISRDNAKNTVYLQMNSLKPEDTAVYYCAATSRSSRRYYYWGQGTQVTVSS | high polyreactivity
4 | QVQLVESGGGLVQAGGSLRLSCAASGRTFSPYAMGWYRQAPGKERELVAAITSRGASTYYADSVKGRFTISRDNAKNTVYLQMNSLKPEDTAVYDCNSGRTYRRLGDYWGQGTQVTVSS | high polyreactivity
5 | QVQLVESGGGLVQAGGSLRLSCAASGSTFGPYAMGWYRQAPGQERELVATITRNGGSTYYADSVKGRFTISRDNAKNTVYLQMNSLKPEDTAVYYCAARLYYEIYDYGAVRIGYDYWGQGTQVTVSS | low polyreactivity
6 | QVQLVESGGGLVQAGGSLRLSCAASGNTFQSYAMGRYRQAPGKEREFVAAIRQSGGSTYYADSVKGRFTISRDTAKYTVYLQMNSLKPEATAVYYCAAYFTPRKYKPYDYWGLGTQVTVSS | high polyreactivity
7 | QVQLVESGGGLVQAGGSLRLSCAASGFTFRVYAMGRYRQAPGKERELVAVISGTGGRTYYADSVKGRFTISRDNAKNTVYLQMNSLKPEDTAVYYCARRGRPPAIYDYWGQGTQVTVSS | high polyreactivity
8 | QVQHVESVGGLVQAGGSLRLSCAASVSTFYFYAMGWYRQAPGKERELVAVISSGGRTYYADSVKGRFTISRDKAKNTVYLQMNSLKPEDTAVYYCAASWPSSLTYYYWGQGTQVTVSS | low polyreactivity
9 | QVQLVESGGGLVQAGGSLRLSCAASGSTFTGNDMGWYRQAPGKERELVASIRRGDRTYYADSVKGRFTISRDNAKNTVYLQMNSLKREDTAVYYCAKPVWWRVYRHGGRFGYWGQGTQVTVSS | low polyreactivity
10 | QVQLVESGGGLVQAGGSLRLICAPSGIIFTSNTMGWSRQAPGNERECVASINWNGSSTYADSVKGRFTISRDIAKNTVYLQMNSLKPEDTAVFYCNADYNRNSVQFSLYDYWGQGTQVTVSS | low polyreactivity
11 | QVQLVESGGGLVQAGGSLRLSCAASGSIFFPNAMGWYRQAPGKERELVAAITSTSTNYADSVKGRCTNSRDNAKNTVYLQLNSLKPEDTAVYYCAADGEFRRAWYEGDYWGQGTQVTVSS | low polyreactivity
12 | QVQLVESGGGLVQAGGSLRLSCAASGRTFVNYTMGWYRQAPGKERELVAAIRYRDGSTYYADSVKGRFTISRDNAKNTVYLQMNSLKPEDTAVYYCDTRITQVGDYIYDYWGQGTQGTVSS | low polyreactivity
13 | QVQLVESGGGLVQAGGSLRLTCAASGRNFQVYAMGWYRQAPGKERELVAGITRAGSTYYADSVKGRFTISRDNAKNTVYLQLNSLKPEDTAVYYCAASRWHGYNYWGQGTQVTVSS | high polyreactivity
14 | QVQLVESGGGLVQAGGSLRLSGAASGRTFYDYAMGWYRQAPGKERELVAAISWIDGSTYYADSVKGRFTISRDNAKNTVYLLMNSLKPEDTAVYYCAARRLVYYRKVKELDYWGQGTQVTVSS | high polyreactivity
15 | QVQLEESGGGLVQAGGSLRLSCAASGRILYGYAKGSYRQAPGKERELVASITWSGGSTYADSVKGRFTFSRDNAKNTVYLQMNSLKTEDTSVYYCSTRRGQKWQWLTYGYWGQGTQVTVSS | low polyreactivity
16 | QVQLVESGEGLVQAGGSLRLSCAASGSTFTYNAMGWYRHAPGKERELVAAIDWDGDTTYYADSVKGRFTISRDNAKNTVYLQMNSLKPEDTAVYYCAARPKYPYYARYDYWGQGTQVTVSS | high polyreactivity
17 | QVQLEESGGGLVQAGGSLRLSCAASGSIFEGNGMGWYRPAPGKERELVAAITFRSGSTYYADSVKGRFTISRDNAKNTVYLQMNSLKPEDTAVYYCAADEYYKVSAYDFWGQGTQVTVSS | low polyreactivity
18 | QVQLVESGGGLVQAGGSLRLSCAASGSTSYRYAMGWYRQAPGKERELVATITSGGRTYYADSVKGRFTISRDNAKNTVYLQMNSLKPEDTAVYYCNKLNYWYKHYYWGQGTQVTVSS | high polyreactivity
19 | QVQLVESRGGLVQAGGSLRLSCAASGFIFWRYAMGWYRQAPGKERELVASITYSGGRTYYADSVKGRFTISRDNAKNTVYLQMNILKPEDTAVYYCATARYRYHYYSWGQGTQVTVSS | high polyreactivity
20 | QVQLVESGGGLVQAGGSLRLSCAASGSTFDDYVMGWYRQAPGKERELVAGINSRGTSTDYAGSVKGRFTISRDNAKNTVYLQMNSLKPEDTAVYYCAADDSHGYDYWGQGTQVTVSS | low polyreactivity
21 | QVQLVESGGGLVQAGGSLRLSCDASGRIFGYYTMGWYRQAPGKERELVAAISNSGVSTYYADSVKGRFTISRDNAKNTVYLQMNSLKPEDTAVYYCNARLYSYYKFNYWGQGTQVTVSS | high polyreactivity
22 | QVQLVESGGGLVQAGGSLRLSCAASGRTFYLNAMGWYRQAPGKERELVAAIRFSGGSTYYADSVKGRFTISRDNAKNTVLLQMNSLKPEDTAVYYCNAGPYHSLYPTVSEYGYWGQGTQVTVSS | low polyreactivity

Row | Sequence | polyreactivity (PSR sort gate)
23 | QVQLVESGGGLVQAGGSLRLSCAASGITFVYYAMGWYRQAPGKERELVAAISKNGGSTYYADSVKGRFTISRDNAKNTVYLQMNSLKPEDTAVYYCAAEEGYRWVRYNYWGQGTQVTVSS | high polyreactivity
24 | QVQLVESGGGLVQAGGSLRLSCAASGGTFRPNAMGWYRQAPGKERELVAAITRSGGSTYYADSVKGRFTISRDNAKNTVYLQMNSLKPVDTAVYYCARDLREWGQGTQVTVSS | low polyreactivity
25 | QVQLVESGGGLVQAGGSLRLICAAAGRIVSYYTMGWYRQAPGKERELVAAISSGGSTNYADSVKGRFTISRDNAKNTVYLQMNSLKPEDTAVYYCAVRCGRRNYDRPAFGYWGQGTQVTVSS | high polyreactivity
26 | QVQLVESGGGLVQAGGSLRLSCAASGSIFPRNAMGWYRQAPGKERELVAAIRKSGGSTYYADSVKGRFTISRDNAKNTVYLQMNSLKPEDTAVYYCAKTYSVSSWQSPIYNYWGQGTQVTVSS | low polyreactivity
27 | QVQLVESGGGLVQAGGSLRLSCAASGRTFGVYMGWYRQAPGKERELVAVISSGDSTNYADSVKGRFTISRDNAKNTVYLQMNSLKPEDTAVYYCNAYGSDRLTLDDYWGQGTQVSVSS | low polyreactivity
28 | QVQLVESGGGLVQAGGSLRLSCAASGSTFAGNAMGWSRQAPGKERELVAGITSSGARTYYADSVKGRFTISRDNAKNTVYLQMNSLKPEDTAVYYCNKYHFSPYDYWGQGTQVTVSS | high polyreactivity
29 | QVQQQESGGGRCSGRRTTPGLRGERHYFSLLHGLVSPGAGQEREFVAAIAVRSTYYADSAKGRFTINRDNAKYTVYLQMNSLKPEDTSVYSCAAYYSYYGGDYWGQGTQVTVSS | low polyreactivity
30 | QVQLVESGGGLVQAGGSLRLSCAASGNIFRGYTMGWYRQAPGKERELVATITWNGVSTFYADSVKGRFTISRDNAKNTVYLQMNSLIPEETAVYYCPAYYPSHDYSGVWSDTYEYWGQGTQVTVSS | low polyreactivity
31 | QVQLVESGGGLVQAGGSLRLSCAASGSTFAGNAMGWYRQAPGKEREFVAAITISVGSTYYADSVKGRFTISRDNAKNTVYLQMNSLTPEDTAVYYCAADFAYYVSLPSRFVYAGYYYWGQGTQVTVTS | low polyreactivity
32 | QVQLVESGGGLVQAGGSLRLSCAASGRIFSRYAMGWYRQAPGKERELVAVISRSGADTYYADSVKGRFTISRDNAKNTVYLQMNSLKPEDTAVFYCNAYSARRPHPMCYDSWGQGTQVTVSS | high polyreactivity
33 | QVQLVESGGGLVQAGGSLRLSCAASGFTFYGNAMGWYRQAPGKERELVASISTYYADSVKGRFTISRDNAKNTVYLQMNSLKPEDTAVYYCAATHYDRTYYVIYDYWGQGTQVTVST | low polyreactivity
34 | QVQLVESGGGLVQAGGSLRLSCAASGRTFKFYAMGWYRQAPGKERELVATISSRGGNTFYADSVKGRFTISRDNAKNTVYLQMNSLIPEDTAVYYCAARRGVRKYPSAGYEYWGQGTQVTVSS | high polyreactivity
35 | QVQLVESGGGLVQAGGSLRLSCAASGRTFRTYTMGWYRPAPGKERELVAAISKRGSSTYYADSVKGRFTISRDNAKNTVYLQMNSLKQEDTAVYYCAARSWLSNSPYGYWGQGTQVTVSS | high polyreactivity
36 | QVQLVESGGGLVQAGGSLRLSCAASGFIFYYYAMGWYRPAPGKERELVAAISGSGGSTYYADSVKGRFTISRDNAKNTGYLQMNSMNPEDTAVYYCAAVQAAGSHAYDYWGQGTQVTVSS | high polyreactivity
37 | QVQLVESGGGLVQAGGSLRLSCAASGRIFPFYVMGWYRQAPGKERELVASIRGGGSTNYADSVKGRFTISRDNAKNTVYLQMNSLKPEDTAVYYCNAARRYRAPLYDYWGQGTQVTVSS | high polyreactivity
38 | QLQLVESGGGLVQAGGSLRLSCAASRSTFKYYAMGWYRQAHGKERELVAAISRRGGSTYYADSVKGRFTISRDNAKNTVYLQMNSLKPEDTAVYYCAADIIRPVTVDYWGQGTQVTVSS | high polyreactivity
39 | QVQLVESGGGLVQAGGSLRLSCAASGRIFVVYAMGWYRQAPGKESELVATISGGSTNYADSVKGRFTISRDNAKNTVYLQMNSVKPDDTAVYYCGMEYWGQGTQVTVSS | low polyreactivity
40 | QVQLVESGGGLVQAGGSFRLSCAASGRIFSPNAMGWYRQAPGKEREFVAAITWRAGTTYYADSVKGRFTISRDNAKNTVYLLMNSLKPEDTAVYYCAAGRRLGYGYWGQGTQVTVSS | high polyreactivity
41 | QVQLVESGGGLVQAGGSLRLSCAASGRTIRYYVMGWYRQAPGKERELVAAISSGGRTNYADSVKGRFTISRDNAKNTVYLQMNSLKPEDTAVYYCAADLWYYWTATRAFDYWGQGTQVTVSS | high polyreactivity
42 | QVQLVESGGGLVQAGGSLRLSFAACGSIFTVYTMGWYRQAPGKERELVAAINSRGGTTYYADSVKGRFTISRDTAKNTVYLQMNSLKPEDTAVYYCAADWGYKDFGYWGQGTQVTVSS | high polyreactivity
43 | QVQLVESGGGLVQAGGSLRLSCAASGFTFRYYVMGWYRQAPGKERELVAAISQSGGSTYYADSVKGRFTISRDNAKNTVYLQMNSLKPEDTAVYYCAARLVKYFRPYDYWGQGTQVTVSS | high polyreactivity
